Molecular target: T1, OhrR-C (chromosomal OhrR) (Acinetobacter baumannii ATCC 19606) (UniProt A0A077GRS4)
T1 sequence: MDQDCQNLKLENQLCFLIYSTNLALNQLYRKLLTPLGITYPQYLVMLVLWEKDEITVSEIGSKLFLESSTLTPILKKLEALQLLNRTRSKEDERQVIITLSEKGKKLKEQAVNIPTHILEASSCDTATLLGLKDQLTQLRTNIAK
Assay: EMSA
Conditions: 20 mM Tris-HCl pH 7.5, 100 mM MgCl2, 150 mM KCl, 50 mM EDTA, 12.5% glycerol, 250 uM DTT, 830 ng/mL poly(dI-dC), 250 ng/mL BSA, 50 nM DNA; room temperature …

## TGTATATTACCTTGCTTAATATTATATTGTGTAAAATATAATTGCACACAATTAAATATAGGTCAATTATTTTCCTTTGTTTTTTATTTAACATAATGGGCGTTATATGAAATTCAAAAAAATGATACTATTTTTGTGATAATTAAATAAATTTTAGGTGAACATAAGTTAAATAGAGCTTATATCGGCC (double strand) [Pohr-p]
  binding: binds more weakly
